Assay results from article PMC4169579 (2014).
Positions of bridges follow the written chain, without caps; N, C: chain ends. No end group written: not given here.

Molecular target: Prostate-specific antigen (PSA or kallikrein-related peptidase-3, KLK3), major form of active PSA (isoform … (human, UniProt P07288 25-261))
Test: SPR

Sequence of Prostate-specific antigen (PSA or kallikrein-related peptidase-3, KLK3), major form of active PSA (isoform … (P07288 25-261): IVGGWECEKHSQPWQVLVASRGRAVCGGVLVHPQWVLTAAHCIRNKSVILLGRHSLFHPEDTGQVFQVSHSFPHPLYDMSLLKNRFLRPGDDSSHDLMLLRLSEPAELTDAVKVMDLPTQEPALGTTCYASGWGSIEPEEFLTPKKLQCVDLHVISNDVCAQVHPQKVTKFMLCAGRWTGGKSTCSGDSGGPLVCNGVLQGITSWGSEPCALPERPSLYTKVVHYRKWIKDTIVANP

B1: 12-amino acid cyclic peptide B2 (without C-terminal amidation) (peptide)
peptide: CVFAHNYDYLVC-OH
modifications: disulfide 1-12; N-terminus assumed
SMILES: CC(C)C[C@@H]1NC(=O)[C@H](Cc2ccc(O)cc2)NC(=O)[C@H](CC(=O)O)NC(=O)[C@H](Cc2ccc(O)cc2)NC(=O)[C@H](CC(N)=O)NC(=O)[C@H](Cc2c[nH]cn2)NC(=O)[C@H](C)NC(=O)[C@H](Cc2ccccc2)NC(=O)[C@H](C(C)C)NC(=O)[C@@H](N)CSSC[C@@H](C(=O)O)NC(=O)[C@H](C(C)C)NC1=O
Kd: 56.1 µM
